Consider two molecules from PMC4404914, “Adenoviral L4 33K forms ring-like oligomers and stimulates ATPase activity of IVa2: implications in viral genome packaging” (Frontiers in Microbiology, 2015).

To fix the notation:
B1: 6His-tagged HAdV5 IVa2, purified from E. coli (natural protein)
chain: METRGRRPAALQHQQDQPQAHPGQRAARSAPLHRDPDYADEDPAPVERHDPGPSGRAPTTAVQRKPPQPAKRGDMLDRDAVEQVTELWDRLELLGQTLKSMPTADGLKPLKNFASLQELLSLGGERLLADLVRENMRVRDMLNEVAPLLRDDGSCSSLNYQLHPVIGVIYGPTGCGKSQLLRNLLSSQLISPTPETVFFIAPQVDMIPPSELKAWEMQICEGNYAPGPDGTIIPQSGTLRPRFVKMAYDDLILEHNYDVSDPRNIFAQAAARGPIAIIMDECMENLGGHKGVSKFFHAFPSKLHDKFPKCTGYTVLVVLHNMNPRRDMAGNIANLKIQSKMHLISPRMHPSQLNRFVNTYTKGLPLAISLLLKDIFRHHAQRSCYDWIIYNTTPQHEALQWCYLHPRDGLMPMYLNIQSHLYHVLEKIHRTLNDRDRWSRAYRARKTPK
notes: IVa2 of human adenovirus serotype 5; synthetic gene cassette, codon-optimized for bacteria, in pET28a (pET28-IVa2); the results speak of the full-length IVa2 band; A faster migrating band, perhaps a degradation product of IVa2, was also in the preparation; also called purified IVa2; source: E. coli BL21 (DE3) pLysS, purified (HiTrap NiNTA, HiPrep 16/10 SP-XL cation exchange)

Series [1] deals with the molecule itself. The series can be described thus: transmission electron microscopy (negative stain); purified protein on glow-discharged carbon-coated formvar grids, rinsed with 20 mM Tris pH 7.5, 2% uranyl acetate.
Series [2] addresses B1. The series can be described thus: cell-based or functional assay.

Take B1: the binding result in series [1] was “binds”.

B2: 6His-tagged HAdV5 L4 33K, purified from E. coli (natural protein)
chain: MAPKKKLQLPPPPTDEEEYWDSQAEEVLDEEEEDMMEDWESLDEEASEVEEVSDETPSPSVAFPSPAPQKSATGSSMATTSAPQAPPALPVRRPNRRWDTTGTRAAHTAPAAAAAAATAAATQKQRRPDSKTLTKPKKSTAAAAAGGGALRLAPNEPVSTRELRNRIFPTLYAIFQQSRGQEQELKIKNRSLRSLTRSCLYHKSEDQLRRTLEDAEALFSKYCALTLKD
On to B2, for which, in series [2], the “ATPase activity of purified IVa2 (inorganic phosphate after 30 min at 37°C) with 33K and HAdV5 Tp-DNA; no significant increase with only IVa2 + 33K, 33K + Tp-DNA or IVa2 + Tp-DNA” value came out at 3 fold.
